# Tested on: MS2 coat protein
# Assay: apparent KD of MS2 coat protein; higher = weaker reporter binding
# Settings: Eterna round: R107
# Method in brief: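 Each design's apparent KD comes from the median of binding-curve fits to its normalised clusters. Those clusters carried RNA switches transcribed on-chip from Illumina sequencing clusters. SNAP-549-labelled MS2 coat protein was titrated onto them in twofold steps (0.7 or 1.5 nM to 3 µM; per step 0.8–1.5 h down to 10–20 min). Conditions were 100 mM Tris-HCl pH 7.5, 80 mM KCl, 4 mM MgCl2, without or with constant ligand.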
# [1] = input ligand: theophylline 20 uM
# [2] = input ligand: tryptophan 2.4 mM
# [3] = input ligand: theophylline 2 mM
Sequence,apparent KD of MS2 coat protein (input ligand: arginine 13.2 mM),apparent KD of MS2 coat protein [1],apparent KD of MS2 coat protein [2],apparent KD of MS2 coat protein (input ligand: none),apparent KD of MS2 coat protein [3]
ACAUGAGGAUCACCCAUGUAAUGGCACGAUACCAGCUGAUCCCGUGGCCCUUGGCAGCGUCCGGUGUGGUCCGCCGGGUUGGACG [XXXMULLIN],24.4 nM,38.7 nM,24.1 nM,–,–
AGACAUGAGGAUCACCCAUGUAGCACGGAUACCAGAUCCAGAUGUAUCCCUUGGCAGCUGUGGUACAGCGUUGCAACGCUCCUAG [Exclusion - Theophylline A (Freestyle 17)],17.6 nM,28.5 nM,18.1 nM,–,–
CAGUCAGUCAGUCAAUGAGUGAGCCAUGAAGGAGCGUGGGAAACCACAGGUAGGUCGCAUGGGAAACAUGAGGAUCACCCAUGUU [SSArg A #2],27.5 nM,36.9 nM,28.2 nM,25.5 nM,36.2 nM
CACAUGAGGAUCACCCAUGUCUGAACUGAAGGAGCGCUAAACAAGGCAGGUAGGUCGCGGAAUCGUGUGUGCAUAUGCACACGCG [9.V],13.6 nM,17.9 nM,16.5 nM,22 nM,31.3 nM
CGGCCCUCACAUGAGGAUCACCCAUGUGAUACCAGCCUGGAAACAGGCCCUUGGCAGCACAGGUCAUCAAAAGAUGACCAAGCCG [TheoAX 21 #SwitchBubble],15.1 nM,20.5 nM,11.8 nM,–,–
UCCUGCAGAGCGGCCGCCACUGUAUUGCGUGAGGAUGACCCAACAUGAGGAUCACCCAUGUUGUUUAGGACCGGGCUUGCCACCA [lkpmullin],16.7 nM,18.5 nM,18.2 nM,14.2 nM,18.1 nM
AAAUAAAACUGACAUACUGACCCAGUGGAAGGAGCGCACGAGGGUGCAGGUAGGUCGCCACAUGAGGAUCACCCAUGUCACGGAA [Esesinonla],56 nM,135 nM,86.7 nM,91.9 nM,131 nM
AGCGACAUGCGUGAUACCAGCUACAUGAGGAUCACCCAUGUAAGUAGGAAACUACUGUGUAGCCCUUGGCAGCACAGUGCAUGUC [Exclusion - Theophylline B (Freestyle 23)],10.3 nM,14 nM,10.8 nM,–,–
CUAUAGAUAAGAAGGAGCGACAUGAGGAUCACCCAUGUCUACCACGUCGAAAGACGCUCAUGUCAGGUAGGUCGCUUAUUUAUAG [Astros-Eli-mod7],71.1 nM,99.2 nM,84.1 nM,117 nM,129 nM
UCCGGACGUUCGGCCGCCACUAAUUUACAUGAGGAUCACCCAUGUGCCAGUGGUCCGCAGAGUAAUAGGACCGGGAACCUUGGCU [theeternabot_exclusion_MS2_Trp_B_10],24.4 nM,30.8 nM,–,–,26.3 nM
UAUCGAAACUGAAGGAGCGAGAUGACAAACAUGAGGAUCACCCAUGUUAUGGGUUGUUAAUCUCAGGUAGGUCGCAGUGGUAGCA [Same State Arginine B GF 17],88.1 nM,142 nM,156 nM,141 nM,245 nM
CCGAACAUGAGGAUCACCCAUGUAUCCGAGCGAGGACCGGUACGGCCGCCACUCGAACUGCACCGGAAAAGGGAAACACCGAUCC [theeternabot_sameState_MS2_Trp_A_9],33.4 nM,95.7 nM,–,–,69.3 nM
ACAUGAGGAUCACCCAUGUAUGAUGUUCCUCGAGGACCGGUACGGCCGCCACUCGAACGAGUGGCACGCGAGUGCGCACUCGCGU [aXa],22.1 nM,19.6 nM,11.7 nM,14.2 nM,14.9 nM
GGAUUAGAGGCGGCCGCCACUGGAACAUGAGGAUCACCCAUGUAGUGCAUGUAAUUAACCUCGAUCAGGACCGGGCCGAUAGUCA [Exclusion - Tryptophan B / A],51.9 nM,85.2 nM,–,–,67.2 nM
UGUAUGUGAUCUGAUACCAGCUAGCGGAAACGCAGCUUGAGGAUCACCCAAGUGGAAAUAAGCCCUUGGCAGCAGAUCGCAUACU [Denovo 6 #StaticStem #AlternativeMS2],99.7 nM,139 nM,309 nM,246 nM,11.9 nM
GGUUGGUCCUCACAUGAGGAUCACCCAUGUCGAGGACCGGUACGGCCGCCACUCGAUUGUACCAGGGCUUAAGAGCCUAUGAGCA [Erenedquce],12.6 nM,23.9 nM,–,–,17.6 nM
